Square brackets hold non-standard residues; d marks the D form. Ends that are not written are not given here.

The values below come from patent US20110319338A1, “PEPTIDES THAT BIND EUKARYOTIC TRANSLATION INITIATION FACTOR 4E” (The Board of Regents of the University of Texas System, priority 2008, published 2011).

The test system of the series is ES-2-GFP cells. Nature of the series: Mouse i.p. xenograft model of epithelial ovarian cancer. Format: in vivo. As to the method:
FIGS. 4A-4C. Anti-tumor activity of [DLys6]GnRH-4EBP1-WT peptide in a xenograft model of EOC. Female nude mice were inoculated i.p. with one million ES-2-GFP cells. At Day 9 after tumor cell inoculation, one group of mice (n=5) was sacrificed (pre-treatment). At Day 9, other groups of mice were administered by i.p. injection with saline (n=11), [DLys6]GnRH (n=11) or [DLys6]GnRH-4EBP1-WT (n=11) at a dose of 3.0 nanomoles per gram body weight Saline or peptide was administered every 2 days thereafter for 11 days (6 doses in total), and mice were sacrificed on Day 20. (FIG. 4A) Visualization under a fluorescence stereoscope of i.p. tumors in pre-treatment mice (at Day 9) including implants on the omentum (ome), and in mice treated with saline, with agonist alone and with [DLys6]GnRH-4EBP1-WT (at Day 20). (FIG. 4B) Hematoxylin eosin-stained sections of tissues of pre-treatment mice (at Day 9) and of saline- and peptide-treated mice (at Day 20). Tumors attached to the omentum extensively involved the pancreas in saline- and agonist-treated mice. Also shown are tumors attached to the broad ligament and mesentery. Bar, 200 micrometers. (FIG. 4C) Quantification of i.p. tumor burden in pre-treatment and treated mice that completed the regimen, expressed as the average percent of area of fluorescence within the abdominal cavity in captured images, and volume of ascites. Median values of tumor burden and ascites volume for each group and statistical significance of differences between groups are indicated.
Animal Studies. Animal studies were approved by the Institutional Animal Care and Use Committee. The ES-2 cell line stably expressing enhanced green fluorescent protein (ES-2-GFP) has been described in previous work (Hara et al., 2007). Four-week-old female nude mice were inoculated i.p. at one site in the lower abdomen with 10^6 ES-2-GFP cells. At Day 9 after tumor cell inoculation, one group of mice (n=5) were killed by CO2 asphyxiation. At Day 9, other groups of mice were administered by i.p. injection with 200 microliters of phosphate-buffered saline (PBS) (n=11), [DLys6]GnRH (n=11) or [DLys6]GnRH-4EBP1-WT peptide (n=11) at a dose of 3.0 nanomoles per gram body weight. Peptides were suspended in PBS and administered at a volume of 200 microliters. PBS or peptide was administered every 2 days thereafter for 11 days (6 doses in total). Mice were sacrificed on Day 20, and ascites harvested. Tumors were visualized under a Leica MZML III fluorescence stereomicroscope equipped with mercury lamp power supply and green fluorescent protein (GFP) filter set. Tumor burden was quantified by measuring areas of fluorescence signals within the abdominal cavity in captured images by using Image Pro Plus 5.0 software (Media Cybernetics, Bethesda, Md.). Slides of paraffin-embedded tissues collected from mice were stained with hematoxylin-eosin. TUNEL-staining of tissue sections was performed using the in situ cell death detection kit (Roche).
To determine the efficacy of [DLys6]GnRH-4EBP1-WT peptide in vivo, a mouse i.p. xenograft model was used that was established from an ES-2 cell line stably expressing GFP (Hara et al., 2007). This model mimics the typical behavior of epithelial ovarian cancer, including i.p. dissemination and ascites formation. This example comprised three treatment groups of mice i) saline, ii) [DLys6]GnRH agonist, and iii) [DLys6]GnRH-4EBP1-WT, where sample size of each group was n=11. The first dose of peptide or saline was administered i.p. to mice at Day 9 after tumor cell inoculation. At Day 9, no ascites had yet formed but tumors had established on the omentum, broad ligament and mesentery which are common sites of ovarian cancer cell attachment (FIGS. 4A,B). A schedule in which peptide was administered every 2 days was chosen, based on the studies of peptide stability in serum (FIG. 6).
Based on studies of other agonist conjugates in xenograft models (19-21), a peptide dose of 3.0 nanomoles per gram body weight was used. […]

Where [1] appears, read: drop-out mice, individual animals.

For “[DLys6]GnRH: GnRH agonist with a D-amino acid substitution at position 6; GnRH-RI-targeting moiety (QHWSY[dK]LRPG; not fully specified (residue 1, C-terminus); ends and bridges not checked)”, under setting [1], the Ascites volume was 8.9 mL and the “Percent i.p. tumor burden” value worked out at 40.9%. Besides, the “i.p. tumor burden, percent of the abdominal cavity (mean)” value (mice that completed regimen, Day 20, 3.0 nanomoles per gram body weight i.p. every 2 days, 6 doses) is listed as 56.4%. Also, under “mouse, in vivo”, the “Drop-outs (euthanized prior to completion due to morbidity related to ascites accumulation)” value was 1; the “Mice euthanized, day” value is given as “n = 1, day 16”; the “day of death before completing treatment regimen” value came to 17 days. Where the note is “of 11 mice per group”, the “Deaths (died before completing treatment regimen)” value is 2.
